Results as given in PMC11172311, “Structural and Interactional Analysis of the Flavonoid Pathway Proteins: Chalcone Synthase, Chalcone Isomerase and Chalcone Isomerase-like Protein” (International Journal of Molecular Sciences, 2024).
Values belong to the substance of their own block, whether it stands above or below them.

Tests used:
[1] = target: Panicum virgatum chalcone synthase (PvCHS) (Panicum virgatum)
[2] = target: Panicum virgatum chalcone synthase (PvCHS) (Panicum virgatum); experiment: ITC; PvCHS in the well, PvCHIL in the syringe; 22 injections of 2 µL; PBS; with naringenin chalcone at 5x molar excess
[3] = target: Panicum virgatum chalcone synthase (PvCHS) (Panicum virgatum); remark: listed apart in the source
[4] = target: Panicum virgatum chalcone synthase (PvCHS) (Panicum virgatum); experiment: ITC; PvCHS in the well, PvCHIL in the syringe; 22 injections of 2 µL; PBS; no small molecule added
[5] = target: Panicum virgatum chalcone synthase (PvCHS) (Panicum virgatum); experiment: as above; remark: listed apart in the source
[6] = target: Panicum virgatum chalcone synthase (PvCHS) (Panicum virgatum); experiment: ITC; PvCHS in the well, PvCHIL in the syringe; 22 injections of 2 µL; PBS; with naringenin at 5x molar excess
[7] = target: Panicum virgatum chalcone synthase (PvCHS) (Panicum virgatum); experiment: crystal structure; PvCHS co-crystallised with naringenin and CoA, space group P1, four molecules in the unit cell; hanging drop, 277 K; data at 100 K
[8] = target: Panicum virgatum chalcone isomerase (PvCHI) (Panicum virgatum); experiment: FRET or BRET; PvCHI labelled with ATTO 488 (donor) held at 1 µM, PvCHS labelled with ATTO 647N (acceptor) gradually increased (0.5 to 10 µM); PBS pH 7.4; spectra in triplicate
[9] = target: Panicum virgatum chalcone isomerase-like protein (PvCHIL) (Panicum virgatum); experiment: FRET or BRET; PvCHIL labelled with ATTO 488 (donor) held at 1 µM, PvCHS labelled with ATTO 550 (acceptor) gradually increased; PBS pH 7.4; spectra in triplicate

Vmax of PvCHS for p-coumaroyl-CoA (naringenin plus naringenin chalcone formed) in the presence of PvCHI against PvCHS alone [1]: 24 fold
Vmax of PvCHS for p-coumaroyl-CoA in the three-protein system (PvCHS, PvCHI and PvCHIL) against PvCHS alone; PvCHIL does not compete with PvCHI [1]: 437 fold
Substance: Panicum virgatum chalcone isomerase (PvCHI) (enzyme)

Kd [2]: 170 µM
dH [2]: 36.4 kcal/mol
Vmax of PvCHS for p-coumaroyl-CoA in the presence of PvCHIL (5:1 molar ratio) against PvCHS alone [3]: 7.7 fold
Kd [4]: 76.3 µM
dH [4]: 31.8 kcal/mol
dH [5]: 31.9 kcal/mol
Kd [6]: 7.46 µM
dH [6]: 5.34 kcal/mol
Substance: Panicum virgatum chalcone isomerase-like protein (PvCHIL) (natural protein)

stoichiometry N [7]: 2
Kd [8]: 0.637 µM
Kd [9]: 26.5 µM
Substance: Panicum virgatum chalcone synthase (PvCHS) (enzyme)
